Measured values published in the DeepSol protein solubility set.

Assay: soluble on expression in E. coli; label from the status in PepcDB or PDB records

Which “soluble on expression in E. coli” value does the source give for “MAHHHHHHMRSSQFLLSGLRRTAILMTISDEYIPRAFPVKSTTGLAGIAVEPLWKPKLLAAASELQAFLTSSDIPPESTYYNIAMTLVKRVNHGIKECQDDWCTLEKRYFWGWPVEYILQVTWRELETAQKWNEWRFWELDPEQVKKVAREDQNIGREGLGYNSPWEQVVREDFDKRKKALTQEEMAELKRMDTERMARETAAYKERKDRIRDDLEKARGDMLKKFLNKRFAVDKDLQRMQPGKRYSGKTADDLIAELKSSVENNPQKSDLGK” here?
The value was “not soluble”.

Which “soluble on expression in E. coli” value does the source give for “MQDDKKVAFPGDMIATTEEYLPGKNTEEKNGEIIAVKFGQIIRDDINLLISVDTQKKEFTLKKGDIVYGQVVKGEQHRYIVRIVGAFQKGLGLREIDEEMQLSLGIARRPQSDFIAIGDLIRGYVIRTGDFPEISINGNHYGVISAVCLRCRQPLVKRGITLYCENCQRTEIRKMADDYGNVDIFNYENRIQNQVKANGKRRLEHHHHHH” here?
Its value is “soluble”.

Which “soluble on expression in E. coli” value does the source give for “MATAAASVVSSETGDLRAYMAANPAAVIEEVAKQWNVSPHAVIAALPDGMARLGPGDGFVAAMNDIATWGEVTLIVHTEDAIFEFTGEVPRGEISRGYFNLMQPKGLHGHLRHDRCGALAFVERPFMGKASAFVAFLNRDGGIMFKVFVGRDANRELRADQLARFHALAKQFSEEHSALEHHHHHH” here?
The value was “not soluble”.

With “MGSDKIHHHHHHMTIDDLKSFMLVCRLHSFSTAAVELSMTQSALSKRLQAIQQEVGSEFISTENRRQILITESGKVFYRYAQRIVSSYDELEQELKAYRELKKGNLQIGRVPVMSQYGLTKIINIFERSYPQIDIHLNELEGNDLLMVLKAGEIDAGIIRDIQTKTIDNNHFNSYTLDRDELKVVLPANDSLNNKKRISIEELANYQVISLESGSGIYEKMVEIYNNAGIPLNVGFKTTHIETIMGMIKNSDQITFLFKKSAMPFMNKQLVMLSLDQPIYSNLELICPRENQHKPALTKFIEYMKKYTSEPVESYP” as the sequence, how does the “soluble on expression in E. coli” value read?
The value was “not soluble”.

With “MGSDKIHHHHHHMFKTIHPLSVARHGKLRLKPVSDYRFAAQEAVIGLVGAEIHKAIHAFPIAFLRSAHAGGTSCQMVGLLSVTPGQNLLVSPDGRWLGDYIPAALRAYPFVLARSQEDADTRLPCLDEDCGLLSESEGQPLFSEDGQLSDFSRRIIDFLTATERNREATQKGVDVLEKAQLFTPWSLQVVIQKQTKAIEGFHVIDETKLNQLDDETWLALRRAGVLPLVYGHLLSLNRTDLLGQLSGLQAQLAQQLTARPKLDDMLDFGDESILQF” as the sequence, how does the “soluble on expression in E. coli” value read?
Its value is “not soluble”.

For “GPGSMVNATPDMARYCCAVIHSKLRGEKTPEPPASITNEPSPIFVSLKTLDGDLRGCIGNFSAEPLHKQLRDYAVAAAFQDNRFPSVTLAELPMLSCSVCLLHSFEKAHRWDDWEIGVHGIRIRYKNYSATYLPSVMPEQRWDHIQAIRSLMRKAGCGEEVSDAILNELDVTRYQESKSTVAFKSANLGSLPC”, which “soluble on expression in E. coli” value is on record?
Its value is “soluble”.

For “MGSDKIHHHHHHMQIISHRGYWLHKPERNLTQAFHRSFDFGFGTETDVRDVAGQLVISHDMPVGGELTLDGLLDIMAGRNLPLAINVKADGMALALKKTFARYGHTNWFVFDMAVPDMRSYLIEEVITYSRLSDVEPSPAWLERATGVWLDGFDSEWFSNQVIGDLLSQDKQVCVVSPELHGRDCMALWQQLLEFRSENRLTLCTDTPVDAAIFFK”, which “soluble on expression in E. coli” value is on record?
Its value is “not soluble”.

With “MAHHHHHHMFSEPVYLTIGDEYEKRAVKPSKSRGRNFIVPVKRSPHITDAVFQKSFISLAVGDEYLPPPPGGTFRQPAEKKPGEPQPLPFKPPSRPHKSCGSGSYYGTFNEKNPPKHEPETTIAEVKKSGANAPAGTVRKPNLYTNPGKKGTYGYTGLTLGRAGEVQYISDPVGCCSGQRTHSPRTQAPFSAAVKCGGCFDEGPHGFSTVYGMNKPLPMRKVPPQRVLPPMKPWRPAGALVREITRHPEYQEDPYDLKEKRLREERLKEQSHKPWFPCGTDAYRHIYTYPVPYNPPPVV” as the sequence, how does the “soluble on expression in E. coli” value read?
The value was “not soluble”.

For “MGSDKIHHHHHHMDNLMLNNKIYLEGTCVSNLEFSHEMYGEGFYTFKISVNRLSDVKDILPVTISERLLTEIDIKEGAELIIEGQLRSYNKFIEGSNRLILTVFARDVQPCIEKSKNPNQIFLDGYICKEPIYRTTPFGREIADILLAVNRPYNKSDYIPTISWGRNSRFCKTLNVGDNIRVWGRLQSRKYQKKVGEDEVVTKTAYEVSISKLEYADEIDEEIDKSVENLAE”, which “soluble on expression in E. coli” value is on record?
The value was “not soluble”.

For “MSLSLKLPKADRSIETYRLAASRTFPARLEGPLNRIAFSAVHTVADPFADNDPWLSVAVDWDKTIAFREHVWDLGLGVAEAMDTAQRGMGLDWPTSLELITRSVAAAKRRNALVFSGAGTDHLAVEDARTVDDVIRAYEEQISAVEKVGGRIILMASRALAKLGRNADDYAKVYDRVLSQVREPVIIHWLGDMFDPALTGYWGTKDLDKAMDVAVAVINANAAKVDGVKVSLLDKQREIDMRRRLDKRIRMYTGDDFNYAELIAGDSQGFSHALLGIFDAIAPAASYALSRLAAGDEAGFHDVLGPTVPLSRHIFKAPTRFYKTGVVFMAYLNGHQDHFTMVGGQESARSMLHLAELFRLADQAGLLANPELATRRMTTVLASHGIESEGHHHHHH”, which “soluble on expression in E. coli” value is on record?
The value was “soluble”.

For “MGSDKIHHHHHHMKILLYLEAEQFLSHSGIGRAMKHQQRALDLMGIDWTKNPEDDYDILHLNTYGFSSWKMLKKAKKAGKKVIFHGHSTKEDFQNSFIGSNIAAPFFKQYLMHFYRAADLVITPTDYSASLLRSYGIKCPILPISNGIDLTKYSRSEAKEQAFREYFSLKSDQKVVVTAALYFKRKGIDDFIKVAERMPDVTFIWFGYQNLWTIPGWIRRIVKKNHPKNVLFPGYIKGDIFEGAMSSADAFFFPSREETEGIVVLEALASHQKTVVRDIPVYHGWLDSTCVSMATDVEGFVNQLQDVLDGKVDKTKEAYQVAESRTIEKVAQQLADAYQQTLEL”, which “soluble on expression in E. coli” value is on record?
Its value is “not soluble”.

With “GMKKIRFAAIGLAHNHIYDMCQQLIDAGAELAGVFESDSDNRAKFTSLFPSVPFAASAEQLITDASIDLIACAVIPCDRAELALRTLDAGKDFFTAKPPLTTLEQLDAVQRRVAETGRKFAVYFNERINVDSALFAGELVQRGEIGRVIQTMGVGPHRERGARPDWFYQKRQYGGILCDIGIHQIEQFLYFTGNTNARVVTSQTANYHHPHHPEFEDFGDAMLLGDNGATGYFRCDWFTPDGLSVWGDGRLTILGTEGYIEIRKYVDLTRGESNVVYLVNGKGEQRFTPAGSVERAFFPDFLRDCRERTENAMSQSHIFKATELSILAQQAANKIA” as the sequence, how does the “soluble on expression in E. coli” value read?
Its value is “soluble”.

With “MAPAPRFSAEEQERLIICAAIKAIEESSLLDFSMSAIAKLAGLSMGSVYKFVQCKEDVLIALATRMYQERQSVFKKVLALPLTTPERIIATSLLDFSKVQMYNFDNQLESIVNTEAMMKRCSERWLTQMIACGERCQTMFQQFLQNAADSGELTSGSRDIEEINLGTWSLSVGYFQTVRLHQCWHNDLDENIDGINDEENEKNTLVLAADNAHIRTMKRLVNTYDWQQKISDDDIEKVCLHLADAALR” as the sequence, how does the “soluble on expression in E. coli” value read?
The value was “not soluble”.

Which “soluble on expression in E. coli” value does the source give for “SSDKDDIETPLLTEAAPILEDGNCEPAKNSESVDQGAKPESKSEPVVSTRKRPETKPSSDLETSKVLPIQDNVSKDVPQTRWGYWGSWGKSILSSASATVATVGQGISNVIEKAETSLGIPSPSEISTEVKYVAGETNAKENENSSPVAGAFGVFSTISTAVQSTGKSVISGGLDALEFIGKKTMDVIAEGDPGFKRTKGLMNRNATLSQVLREAKEKEEIRTSNEVTVETDKKTHYGLLFDEFQGLSHLEALEMLSQESEIKVKSILNSLSGEELETLKVELEQLKETFSLAEFCEEEEEEKKGDEDFTKDITELFSQLHVSSKPEKLARARNTAHEWIRKSLTKPLAENEEGEKQSEAENTEQVNKNSIEDIHAFAIRSLAELTACSIELFHKTAALVLHGRKQEVTAIERSQTLSQMTIVLCKELSSLSKEFTTCLTTAGVKEMADVLNPLITAVFLEASNSASYIQDAFQLLLPVLEISLIENKIESHRHELQGQKPLLEH” here?
The value was “soluble”.

Which “soluble on expression in E. coli” value does the source give for “MTTTGHVHFYIGTYTNPPSTSTSTGIARLSLNTETGELTRLDDVVVQRNPSYLTTTEHGLYTFSEMDRNEGTELAFFRGSESVSLPINGDYPCHLDIKEPLLAVANYGSGNVSVFQLDRDGKPLGLLADLYVDGCGPNLERQTSPHAHQVTFLKHSHQLVVVDLGSDSVLIYDYDAQPPDFSLSQVIHLPAGSGPRHVVFNQQESTAYVVCELSETLIVLVKHQDKWLISNQTELLEGEENQQAAAAIRLSQDETFLYVSCRAQNKISMFDVSGDTPKRRAAIHCEGVFPRDFVLSHDQKWLLVANQHSNNVVSFRRNPQTGEITPTGYDCEIGSPVCIVEQPLLEHHHHHH” here?
Its value is “not soluble”.
